Experimental data reported in article PMC10499536 (Nature, 2022).

Molecular target: the molecule itself
Test: cryo-EM structure

B1: truncated mouse mIgM heavy chain lacking the two Fab arms (of IgM BCRΔFab; vector pMS-RL2b) (receptor)
heavy: AEAAAKEAAAKEAAAKAAVAEMNPNVNVFVPPRDGFSGPAPRKSKLICEATNFTPKPITVSWLKDGKLVESGFTTDPVTIENKGSTPQTYKVISTLTISEIDWLNLNVYTCRVDHRGLTFLKNVSSTCAASPSTDILTFTIPPSFADIFLSKSANLTCLVSNLATYETLNISWASQSGEPLETKIKIMESHPNGTFSAKGVASVCVEDWNNRKEFVCTVTHRDLPSPQKKFISKPNEVHKHPPAVYLLPPAREQLNLRESATVTCLVKGFSPADISVQWLQRGQLLPQEKYVTSAPMPEPGAPGFYFTHSILTVTEEEWNSGETYTCVVGHEALPHLVTERTVDKSTEGEVNAEEEGFENLWTTASTFIVLFLLSLFYSTTVTLFKVK
binding result: binds
